Laboratory results taken from patent US20250002610A1 (Genmab, published 2025).
Changes are numbered by the printed parent chain.

T1: cynomolgus monkey FAPα on Expi293F cells (cynomolgus monkey (Macaca fascicularis), UniProt Q12884 1-760 (human entry))
T1 sequence: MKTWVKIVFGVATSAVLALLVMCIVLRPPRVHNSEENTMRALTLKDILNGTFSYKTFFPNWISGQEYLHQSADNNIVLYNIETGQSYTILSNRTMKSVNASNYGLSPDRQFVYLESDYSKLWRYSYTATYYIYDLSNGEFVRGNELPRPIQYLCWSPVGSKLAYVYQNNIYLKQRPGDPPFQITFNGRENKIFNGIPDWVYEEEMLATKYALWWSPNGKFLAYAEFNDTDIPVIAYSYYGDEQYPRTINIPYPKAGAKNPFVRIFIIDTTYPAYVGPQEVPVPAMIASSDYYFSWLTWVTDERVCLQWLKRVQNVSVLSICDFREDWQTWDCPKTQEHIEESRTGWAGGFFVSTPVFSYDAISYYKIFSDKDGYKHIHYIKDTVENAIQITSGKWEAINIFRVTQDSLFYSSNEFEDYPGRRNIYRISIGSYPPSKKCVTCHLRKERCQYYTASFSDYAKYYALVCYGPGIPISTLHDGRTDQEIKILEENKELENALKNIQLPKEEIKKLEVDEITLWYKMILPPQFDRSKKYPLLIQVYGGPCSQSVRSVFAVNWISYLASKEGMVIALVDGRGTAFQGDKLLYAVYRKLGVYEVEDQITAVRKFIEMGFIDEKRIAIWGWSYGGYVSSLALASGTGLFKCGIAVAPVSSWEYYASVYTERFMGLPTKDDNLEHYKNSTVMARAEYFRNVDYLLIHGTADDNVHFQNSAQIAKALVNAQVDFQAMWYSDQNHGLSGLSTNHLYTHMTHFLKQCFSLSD

T2: human FAPα (Fibroblast activation protein alpha), cell surface expressed (human, UniProt Q12884 1-760)
T2 construct: Endogenous on human lung fibroblasts and CAFs
T2 sequence: T1 sequence with P29S, F261V, D417E

T3: human DR4 (Death Receptor 4), cell surface expressed on human tumor cell lines (human, UniProt O00220 24-468)
T3 construct: also called TNFRSF10A; TRAIL-R1
T3 sequence: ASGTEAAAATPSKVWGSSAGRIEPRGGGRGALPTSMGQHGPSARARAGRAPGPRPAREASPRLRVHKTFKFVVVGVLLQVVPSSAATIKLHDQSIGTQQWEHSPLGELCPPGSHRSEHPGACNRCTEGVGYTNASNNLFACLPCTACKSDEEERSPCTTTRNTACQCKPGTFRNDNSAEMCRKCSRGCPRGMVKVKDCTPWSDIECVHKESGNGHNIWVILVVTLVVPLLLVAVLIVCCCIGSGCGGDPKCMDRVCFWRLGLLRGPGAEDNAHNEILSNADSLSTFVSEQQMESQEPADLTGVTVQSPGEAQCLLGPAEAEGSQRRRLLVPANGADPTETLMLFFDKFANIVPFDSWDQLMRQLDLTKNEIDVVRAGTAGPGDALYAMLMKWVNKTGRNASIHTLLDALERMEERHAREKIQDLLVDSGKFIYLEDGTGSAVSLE

B1: BisG1-FAPα-FEAL/b12-FEAR (bispecific antibody, human IgG1, kappa)
heavy 1: EVQLLESGGGLVQPGGSPRLSCEASGFTFSSYALSWVRQAPGKGLEWVSAISGSGGGRYYADSVKGRFTISRDNSKNTLFLQMNSLRAEDTAVYYCAKEGYSSSGTYWDHWGQGTLVTVSSASTKGPSVFPLAPSSKSTSGGTAALGCLVKDYFPEPVTVSWNSGALTSGVHTFPAVLQSSGLYSLSSVVTVPSSSLGTQTYICNVNHKPSNTKVDKRVEPKSCDKTHTCPPCPAPEFEGGPSVFLFPPKPKDTLMISRTPEVTCVVVAVSHEDPEVKFNWYVDGVEVHNAKTKPREEQYNSTYRVVSVLTVLHQDWLNGKEYKCKVSNKALPAPIEKTISKAKGQPREPQVYTLPPSREEMTKNQVSLTCLVKGFYPSDIAVEWESNGQPENNYKTTPPVLDSDGSFLLYSKLTVDKSRWQQGNVFSCSVMHEALHNHYTQKSLSLSPG
light 1: AIQMTQSPSSVSASVGDRVTITCRASQGVSSWLAWYQQKPGRAPKLLIYVASTLQSGVPSRFSGSGSGTDFTLTINSLQPEDFATYYCQQANSFPPTFGQGTRLEMKRTVAAPSVFIFPPSDEQLKSGTASVVCLLNNFYPREAKVQWKVDNALQSGNSQESVTEQDSKDSTYSLSSTLTLSKADYEKHKVYACEVTHQGLSSPVTKSFNRGEC
heavy 2: QVQLVQSGAEVKKPGASVKVSCQASGYRFSNFVIHWVRQAPGQRFEWMGWINPYNGNKEFSAKFQDRVTFTADTSANTAYMELRSLRSADTAVYYCARVGPYSWDDSPQDNYYMDVWGKGTTVIVSSASTKGPSVFPLAPSSKSTSGGTAALGCLVKDYFPEPVTVSWNSGALTSGVHTFPAVLQSSGLYSLSSVVTVPSSSLGTQTYICNVNHKPSNTKVDKRVEPKSCDKTHTCPPCPAPEFEGGPSVFLFPPKPKDTLMISRTPEVTCVVVAVSHEDPEVKFNWYVDGVEVHNAKTKPREEQYNSTYRVVSVLTVLHQDWLNGKEYKCKVSNKALPAPIEKTISKAKGQPREPQVYTLPPSREEMTKNQVSLTCLVKGFYPSDIAVEWESNGQPENNYKTTPPVLDSDGSFFLYSRLTVDKSRWQQGNVFSCSVMHEALHNHYTQKSLSLSPG
light 2: EIVLTQSPGTLSLSPGERATFSCRSSHSIRSRRVAWYQHKPGQAPRLVIHGVSNRASGISDRFSGSGSGTDFTLTITRVEPEDFALYYCQVYGASSYTFGQGTKLERKRTVAAPSVFIFPPSDEQLKSGTASVVCLLNNFYPREAKVQWKVDNALQSGNSQESVTEQDSKDSTYSLSSTLTLSKADYEKHKVYACEVTHQGLSSPVTKSFNRGEC
notes: Fab-arm exchange of IgG1-FAPα-FEAL and IgG1-b12-FEAR
B2: IgG1-FAPα-FERL (antibody)
heavy: B1 heavy 1 with G240R, A269D
light: B1 light 1
notes: Bivalent monoclonal IgG1 kappa
B3: IgG1-DR4-FERR (antibody, V domains shown)
VH: QVQLQESGPGLVKPSGTLSLTCAVSGGSISSYSWWSWIRQPPGKGLEWIGELYHSGSTNYNPSLKSRVTISVDKSKNQFSLKLRSVTAADTAVYYCVRGVATIDYWGQGTLVTVSS
VL: QSALTQPPSASGSPGQSVTISCTGTSSDVGGYNFVSWYQQDPGKAPKLLIYEVTKRPSGVPDRFSGSKSGNTASLTVSGLQAEDEADYYCSSYAGSNNVMFGGGTKLTVLG
notes: Bivalent monoclonal IgG1 lambda
B4: BisG1-b12-FERL/DR4-FERR (bispecific antibody, human IgG1, kappa, lambda)
heavy 1: B1 heavy 2 with G246R, A275D, F415L, R419K
light 1: B1 light 2
heavy 2: QVQLQESGPGLVKPSGTLSLTCAVSGGSISSYSWWSWIRQPPGKGLEWIGELYHSGSTNYNPSLKSRVTISVDKSKNQFSLKLRSVTAADTAVYYCVRGVATIDYWGQGTLVTVSSASTKGPSVFPLAPSSKSTSGGTAALGCLVKDYFPEPVTVSWNSGALTSGVHTFPAVLQSSGLYSLSSVVTVPSSSLGTQTYICNVNHKPSNTKVDKRVEPKSCDKTHTCPPCPAPEFERGPSVFLFPPKPKDTLMISRTPEVTCVVVDVSHEDPEVKFNWYVDGVEVHNAKTKPREEQYNSTYRVVSVLTVLHQDWLNGKEYKCKVSNKALPAPIEKTISKAKGQPREPQVYTLPPSREEMTKNQVSLTCLVKGFYPSDIAVEWESNGQPENNYKTTPPVLDSDGSFFLYSRLTVDKSRWQQGNVFSCSVMHEALHNHYTQKSLSLSPG
light 2: QSALTQPPSASGSPGQSVTISCTGTSSDVGGYNFVSWYQQDPGKAPKLLIYEVTKRPSGVPDRFSGSKSGNTASLTVSGLQAEDEADYYCSSYAGSNNVMFGGGTKLTVLGQPKAAPSVTLFPPSSEELQANKATLVCLISDFYPGAVTVAWKADSSPVKAGVETTTPSKQSNNKYAASSYLSLTPEQWKSHRSYSCQVTHEGSTVEKTVAPTECS
notes: Fab-arm exchange of IgG1-b12-FERL and IgG1-DR4-FERR; also called bsIgG1-ctrl-FERLxDR4-FERR

Tests used:
[1] = target: T1, cynomolgus monkey FAPα on Expi293F cells; experiment: flow cytometry, Expi293F cells expressing cynomolgus monkey FAPα, n = 2
Description: (§1) Binding of BisG1-FAPα-FERL/DR4-FERR, BisG1-FAPα-FEAL/b12-FEAR and IgG1-FAPα-FERL to FAPα of species commonly used for nonclinical toxicology studies was assessed by flow cytometry using Expi293F cells transiently expressing FAPα from different animal species. IgG1-b12 was included as negative control.
(§2) Expi293F cells expressing recombinant FAPα from various species (human, cynomolgus monkey, dog, pig, rat or mouse) were seeded (20,000 cells/well) in 96-Well round bottom plates (Greiner Bio-one, Cat #650101). Antibody dilutions were prepared using FACS buffer, consisting of PBS (Capricorn Scientific, Cat #PBS-10XA, diluted to 1×PBS in distilled water)+1% BSA (Roche, Cat #10735086001)+0.02% Sodium Azide (Bio-World, Cat #41920044-3). Plates were centrifuged, supernatant was removed, and cells were resuspended in 100 μL of antibody dilutions (concentration range 30-0.00017 μg/mL with three-fold serial dilutions using FACS buffer) of BisG1-FAPα-FERL/DR4-FERR, BisG1-FAPα-FEAL/b12-FEAR, IgG1-FAPα-FERL and IgG1-b12 and incubated for 30 min at 4° C. […] After 30 min incubation at 4° C., cells were washed with FACS buffer and resuspended in FACS buffer supplemented with TO-PRO-3 Iodide viability marker (Invitrogen, Cat #T3605, diluted 1:4,000). Antibody binding to viable cells (gMFI of PE on TO-PRO-3 negative cells) was analyzed by flow cytometry on a FACS Celesta and FACS_Diva software (first two experiments) or iQue® 3 and FlowJo software (last experiment). gMFI was determined and visualized using GraphPad Prism. Binding curves were analyzed using nonlinear regression analysis. The concentration (pg/mL) at which 50% of the maximal effect was observed (EC₅₀) was derived from the fitted curves.

[2] = target: T1, cynomolgus monkey FAPα on Expi293F cells; experiment: flow cytometry, Expi293F cells expressing cynomolgus monkey FAPα, n = 3
Description: as §1, §2

[3] = target: T2, human FAPα (Fibroblast activation …); experiment: flow cytometry, Expi293F cells expressing human FAPα, n = 3
Description: as §1, §2

[4] = target: T3, human DR4 (Death Receptor 4), cell …; experiment: flow cytometry, A549 cells, average ± SEM

Binder | EC50 [1] | EC50 [2] | EC50 [3] | EC50 [4]
B1 | 0.16 µg/mL | 0.35 µg/mL | 0.61 µg/mL | –
B2 | 0.11 µg/mL | 0.16 µg/mL | 0.32 µg/mL | –
B3 | – | – | – | 0.32 µg/mL
B4 | – | – | – | 0.78 µg/mL
